In patent US10869937B2, “Polymer derivatives, and novel polymer derivative imaging probe using same” (Nippon Kayaku Kabushiki Kaisha, priority 2016, dated 2020) one finds average particle size data, which are given here for one substance.

The series in a line: Average particle size measurement with single nanoparticle size analyzer IG-1000 (induced diffraction grating method). Type of series: physicochemical. The conditions noted are these: 1 mg/mL in ultrapure water, 25° C. How it is done: The particle size (average particle size) of the nanoparticles according to the invention is measured by, for example, an induced diffraction grating method. An induced diffraction grating method is a method of: (1) irradiating a 1 or 2 mg/mL aqueous solution of the block copolymer of the present invention or a composition including the block copolymer with laser light, thereby forming diffraction gratings by dielectrophoresis; (2) stopping an external force that causes dielectrophoresis, measuring the annihilation rate of the diffraction gratings caused by diffusion, and (3) applying the annihilation rate to the Stokes-Einstein relational equation to obtain the particle size. For example, the particle size may be measured with a single nanoparticle size measuring apparatus, IG-1000, manufactured by Shimadzu Corp.
Measurement of the average particle sizes of the block copolymers of Synthesis Examples and Examples and compositions including those block copolymers was carried out using a single nanoparticle size analyzer, IG-1000, manufactured by Shimadzu Corp. (measurement temperature: 25° C., light intensity at t=0: 100 to 200). Regarding the sample for measuring the average particle size, a solution produced using ultrapure water to a block copolymer concentration of 1 mg/mL or 2 mg/mL and filtered through a 0.45 μm membrane filter, was used.

“7-ethyl-10-hydroxycamptothecin (EHC)-Bonded and ALEXA FLUOR (registered trademark) 594 Cadaverin (Alexa)-Bonded Product of Polyethylene Glycol (2 kDa)-Polyglutamic Acid (8.3 Polymerization Units) Block Copolymer [Example 3]” returned an average particle size of 10 nm.
